Measurements taken from the DeepSol protein solubility set.

Test: soluble on expression in E. coli; label from the status in PepcDB or PDB records

Sequence | soluble on expression in E. coli
MGSDKIHHHHHHLGPPTPLGLRAAPHNVTNLAQTPLAERLRSLVDTVQHNERTLRRFQSVELRLIGAQDFASFLDTLFGQLPREFSLAGVTLWLDDRAPMLRELLEPVALRALDQPRLRTSREGGLAAQGLCEDGRPWLGTPRELDDTVRRAFFGDAEQVPASAILLPLASGDTVGGYLWLGSDDAARFAQGMATDILERFASIVTASLDNVAHRERLKQLGMTDSLTGLANRRYFDERLREEVMRAVRYRMPVACLFIDIDSFKRINDTYGHQTGDRALAAVAACVRQQVRLGDTVARYGGEEFAALLQGDRADALTVAERVRLAVERLALQDDHGERIALTVSIGVAARMVSGTPTEAAMLGGAIIEEADRAMYQAKRNGRNRIEALVNASGDHTAG | not soluble
GPLGSMSVAGLKKQFHKATQKVSEKVGGAEGTKLDDDFKEMERKVDVTSRAVMEIMTKTIEYLAHLSSLLQAEALLAEAMLKFGRELGDDCNFGPALGEVGEAMRELSEVKDSLDIEVKQNFIDPLQNLHDKDLREIQHHLKKLEGRRLDFDYKKKRQGKIPDEELRQALEKFDESKEIAESSMFNLLEMDIEQVSQLSALVQAQLEYHKQAVQILQQVTVRLEERIRQA | soluble
MRKLVVGSRRSKLALTQSQQFIDKLKAVEPNLEIEIKEIVTKGDRIVDKQLSKVGGKGLFVKEIQHELFEKNIDMAIHSLKDVPSVIPEGLTLGCIPDRELPFDAYISKTHTPLSQLPEGSIIGTSSLRRGAQILSKYPNLEIKWIRGNIDTRLEKLQTEDYDAIILAAAGLRRMGWSDDIVTSYLDRDTLLPAIGQGALGIECRSDDEELLTLLSKVHNDEVAKCVTAERTFLAEMDGSCQVPIAGYATISDQNEIEFTGLIMTPDGKERFEYTMNGTDPVELGKTVSNKLKEQGAYEIIKRLNEQH | not soluble
MAESYEEWKSFALKLDEETGAQEWKFDNSSPYFDAELISYRYTLLKRYRQQHRTLDLIYLLKEGLTYDIANIGHPMLFAATHVGTKKLIEDYIEEVSQSLAYIASSECITFQRKEKIEFFENCEKAYGQPALMFSGGATLGLFHTGVCKALIEQDLMPKVLSGSSAGAIMTGMLGISASEDIQNLLNGEQFFSDAFHFRKLRELIKGNGGIADVHYLKKFLIENLGDLTFEEAFKKSGLNINVAVAPYDATENPRIMNAIMTPNVLVWSAVLASCAVPVLFPPVRLTSKRYDGEHTPYMANTKWVDGSVRSDFPQERMARLYNLNYTIASQVNPHVVPFMQDDARRFRKDVLSWPERILRRQGKVLSMGLMDFTRQRLGAISPVRRLLDHGYGVVGQRYYGDVNIIAKYSLKHYAYTLQNPRPHLFKRLQREGERATWPKISSIETHARIGKTIQHCLEVLRFEEKKLEHHHHHH | not soluble
MLNLFRNRKRNGAGPTIKKAQKMPELDDFLSNQDYEGAISLLNHKLKAGNLDREEEDSLQLWLAHCYYRLRNYEEAANVYTFLMNKDDAPAELGVYLACCKFYLKQYIEAKSIAEKCPKTPLCIRLMMNVSLRLNDEKRILTFHSSLGDTLEDRLSLAGVNYSRMHYQDAIEVYTSVLQTSPNLIGLNVNMALCYAKMDYPHVAYNLIKNYLRNFPNSPFAKNLLLSVLYRTITSKTTVDEKSELARNIDQEGLTMVSDMEALLKQKLYPEIEYICKHNLVLFKNCETALQVLPSLMKHIPEARVNLILYHLNKNNVKDAISLCKDFDPVTPYEFLVKALTFLRHGQETNSREHLKIAENFFQMVGESGLVQDTIAGRQSSAAYLFLSFKFDDVITYLKSIEAYFTNNDDFLLNLAQAYLMYKNYVAAEKLFIRVSGPERDKILYKSMLARCYVRNKKPQSAWDMMLKTNNPSDRMSLLKVIAQDCYIANEFYYASKAFHEIEISDPTTENWSGKRGACAGLFRQLANHKTDPILISQMREVVHLVAMKPHSNCEFLLKVVRNWAETHNVNIIN | not soluble
MPPPGIPPPFPPMGLPPMSQRPPAIPPMPPGILPPMLPPMGAPPPLTQIPGMVPPMMPGMLMPAVPVTAATAPGADTASSAVAGTGPPRALWSEHVAPDGRIYYYNADDKQSVWEKPSVLKSKAELLLSQCPWKEYKSDTGKPYYYNNQSKESRWTRPKDLDDLEVLVKQEAAGKQQQQLPQTLQPQPPQPQPDPPPVPPGPTPVPTGLLEPEPGGSEDCDVLEATQPLEQGFLQQLEEGPSSSGQHQPQQEEEESKPEPERSGLSWSNREKAKQAFKELLRDKAVPSNASWEQAMKMVVTDPRYSALPKLSEKKQAFNAYKAQREKEEKEEARLRAKEAKQTLQHFLEQHERMTSTTRYRRAEQTFGELEVWAVVPERDRKEVYDDVLFFLAKKEKEQAKQLRRRNIQALKSILDGMSSVNFQTTWSQAQQYLMDNPSFAQDHQLQNMDKEDALICFEEHIRALEREEEEERERARLRERRQQRKNREAFQTFLDELHETGQLHSMSTWMELYPAVSTDVRFANMLGQPGSTPLDLFKFYVEELKARFHDEKKIIKDILKVNTAFEDFAHVISFDKRAAALDAGNIKLTFNSLLEKAEAREREREKEEARRMRRREAAFRSMLRQAVPALELGTAWEEVRERFVCDSAFEQITLESERIRLFREFLQVLEQTECQHLHTKGRKHGRKGKKHHHKRSHSPSGSESEEEELPPPSLRPPKRRRRNPSESGSEPSSSLDSVESGGAALGGRGSPSSHLLGADHGLRKAKKPKKKTKKRRHKSNSPESETDPEEKAGKESDEKEQEQDKDRELQQAELPNRSPGFGIKKEKTGWDTSESELSEGELERRRRTLLQQLDDHQ | soluble
MAHHHHHHMNIFDHQIKNVDKGNVVAILGAQWGDEGKGKIIDMLSEYSDITCRFNGGANAGHTISVNDKKYALHLLPCGVLYDNNISVLGNGMVIHVKSLMEEIESVGGKLLDRLYLSNKAHILFDIHQIIDSIQETKKLKEGKQIGTTKRGIGPCYSTKASRIGIRLGTLKNFENFKNMYSKLIDHLMDLYNITEYDKEKELNLFYNYHLKLRDRIVDVISFMNTNLENNKKVLIEGANAAMLDIDFGTYPYVTSSCTTVGGVFSGLGIHHKKLNLVVGVVKSYLTRVGCGPFLTELNNDVGQYLREKGHEYGTTTKRPRRCGWLDIPMLLYVKCINSIDMINLTKLDVLSGLEEILLCVNFKNKKTGELLEKGCYPVEEEISEEYEPVYEKFSGWKEDISTCNEFDELPENAKKYILAIEKYLKTPIVWIGVGPNRKNMIVKKNFNLN | soluble
MVQNNDVDGAFGLLNRLMDSEGMLKIIRRTQFYQKPYMQRKTLSMEASTAIFNEDMNRKMKFLVRKNRPDKHPGQVTS | not soluble
MDVRPYEGGRFEKIGSEEAHTIETFERRIHGTPHSEPQRQVSSKQYTERRTYGRDENGEIVVKIEKNPSEPVRPASPVRPVTPVGGENELSRHLLQPIQPLHIPRIDIQPANSSRHASPRHKLQYDEVSPRSGSINMLSPRSGHSASSRSGAGSRQSNVSVNSANVPLKKVTKKSRFVSIHDGRPVSPYTETVSFEVAIPFQPDRYSSASARSFSSSPHVSRRPSECAYLMENPLYQD | not soluble
MSDSCDGVECGPGKACRMLGGRPRCECAPDCSGLPARLQVCGSDGATYRDECELRAARCRGHPDLSVMYRGRCRK | soluble
MSLSQSALSELLEAFRAGDGVDLICESVRVALQDLIQLEASERIGAAPYERTDARVSERNGHRPRVLTTKAGDVELRIPKLRKGSFFPVILEPRRRIDQALYAVVMEAYVHGVSTRSVDDLVEAMGVDAGISKSEVSRICAGLDEQVGAFRTRALDHTEFPYVYLDATYLNVRNTTGQVTSMAVVVATGIAADGSREVLGLDVGDSEDETFWRGFLTALKQRGLHGVQLVISDQHAGLVKALRRSFQGAGHQRCRVHFARNLLAHVPKSHGDMVAAVFRTIFAQPDAAAVSHAWDEVRDQLAKSFPKIGPLMDEAKAEVTAFTVFPRAHWQKIWSTNPLERSTRRSSDAPGWSGSEGHHHHHH | soluble
NMIKAAISRQREFLADASAVQFTRNDQGIAGALKKIGSNVQGSTLNTKASDEMSHMMFGQSKLSGFSGLFATHPPLDERIRRIEPNWDGSYAQHSHAQNTAFDNEQVSGFAVGGGSPASQSASPSEQLSETGQQLISQLPPELVDIAREPYSARFIAFALIFDGSDIQREMIKSYVPLASQSTLLPWLDYDLPLHLRFPLLELALPALKSLSEAQKISLCKVLRELSETDNQYSLAEWCVINLLEKQLLASFGFIKQHKSLKQLEESVFWLLRELAWVSHSQADKAQRAYHCALAHLGFPEVKLEPANSNWHLSRAALELLLQLKPNDRRMFVKACRLAIESDGEITVAEGEIYRVIACFLEVPEPPLTISG | not soluble
DKDNPKGLPMLSVDEPTLTMDFMVNTSPLAGTEGKFVTSRQIRDRLQKELLTNVALRVEDTADADVFRVSGRGELHLTILLENMRREGYELAVGKPRVVYRDIDGQKCEPYENLTVDVPDDNQGAVMEELGRRRGELTNMESDGNGRTRLEYHIPARGLIGFQGEFMTLTRGVGLMSHVFDDYAPVKPDMPGRHNGVLVSQEQGEAVAYALWNLEDRGRMFVSPNDKIYEGMIIGIHSRDNDLVVNPLKGKKLTNIRASGTDEAVRLTTPIKLTLEGAVEFIDDDELVEITPQSIRLRKRYLSELERRRHFKKLD | not soluble
MMSMIEKLKKFTQIPGISGYEERIREEIIREIKDFADYKVDAIGNLIVELGEGEERILFMAHMDEIGLLITGITDEGKLRFRKVGGIDDRLLYGRHVNVVTEKGILDGVIGATPPHLSLERDKSVIPWYDLVIDIGAESKEEALELVKPLDFAVFKKHFSVLNGKYVSTRGLDDRFGVVALIEAIKDLVDHELEGKVIFAFTVQEEVGLKGAKFLANHYYPQYAFAIDSFACCSPLTGDVKLGKGPVIRAVDNSAIYSRDLARKVWSIAEKNGIEIQIGVTGGGTDASAFQDRSKTLALSVPIKYLHSEVETLHLNDLEKLVKLIEALAFEL | soluble
MGSSHHHHHHSQDPPAVHKLTKRIPLRRQVTVSAESSSSMNSNTPLVRITTRLSSTADTPMLAGVSEYELPEDPKWEFPRDKLTLGKPLGEGCFGQVVMAEAVGIDKDKPKEAVTVAVKMLKDDATEKDLSDLVSEMEMMKMIGKHKNIINLLGACTQDGPLYVIVEYASKGNLREYLRARRPPGMEYSYDINRVPEEQMTFKDLVSCTYQLARGMEYLASQKCIHRDLAARNVLVTENNVMKIADFGLARDINNIDYYKKTTNGRLPVKWMAPEALFDRVYTHQSDVWSFGVLMWEIFTLGGSPYPGIPVEELFKLLKEGHRMDKPANCTNELYMMMRDCWHAVPSQRPTFKQLVEDLDRILTLTTNEE | soluble
MSAPLPPRGRGTASNPLNRFAPTHSEAFDDGWEQDVPPIQLTEVREEIARTVISRNQSPDLPFDRSINPYRGCEHGCIYCYARPSHAYWDLSPGIDFETRLIAKSNVASALEQELSKPGYRCAPINLGANTDPYQPLERERRLTRQVLEVLLRFRHPLTIVTKGSLILRDLDLLRELAEQNLVAVMISLTTLDDELKRILEPRAAAPSARLRAIRTLSGNGIPVGVLCSPMIPMVNDMELERLLQAARDAGARSAAYMLLRLPREVGPLFEEWLAAHYPQRAEHVMSLVRQCRGGEVYDSRFGHRFRGQGPFADLLAQRFAVAMKRLGLDRREGFGLDCSRFAVPGAQMALF | not soluble
